We go through 20 variants from the RNAGym collection of RNA variant scans (doi:10.7554/elife.90254).

To fix the notation:
B1: LINE1-full (parent)
chain: UACGUAGGUGGUUUUCCCCUGAUAGUGCUAAGGGGGCCUGGAAGUUUGGACUGGGCAGAGCUCAACACAGCGUGGCAAAGUGGCUGUGGCUAGACUGCCUCUCUGGAUUCCUCGUCACUCAGCAGGGCAUCUCUGAGAGAAAUGCC

In the data set the parent is B1. Kind of data set: self-cleavage, relative activity (ratio to wild type); higher = more cleavage; in vitro, sequencing; the parent is a self-cleaving ribozyme.
Turning to UACGUAGGUGGUUUUCCCCUGAUAGUGCUAAGGGGGCCUGGCAGUUUGGACUGGGCAGAGCUCAACACAGCGCGGCAAAGUGGCUGUGGCUAGACUGCCUCUCUGGAUUCCUCGUCACUCAGCAGGGCAUCUCUGAGAGAAAUGCC [A42C U73C], the self-cleavage turned out to be 0.75.

As for UACGUAGGUGGUUUUCCCCUGAUAGUGCUAAGGGGGCCUGGCAGUUUGGACUGGGCAGAGCUCAACACAGCGUGGCAAAGUGGCUGUGGCCAGACUGCCUCUCUGGAUUCCUCGUCACUCAGCAGGGCAUCUCUGAGAGAAAUGCC [A42C U91C], the self-cleavage was 0.4. In the case of UACGUAGGUGGUUUUCCCCUGAUAGUGCUAAGGGGGCCUGGCAGUUUGGACUGGGCAGAGCUCAACACAGCGUGGCAAAGUGGCUGUGGCUAGAUUGCCUCUCUGGAUUCCUCGUCACUCAGCAGGGCAUCUCUGAGAGAAAUGCC [A42C C95U], the self-cleavage was found to be 0.04.

Regarding UACGUAGGUGGUUUUCCCCUGAUAGUGCUAAGGGGGCCUGGCAGUUUGGACUGGGCAGAGCUCAACACAGCGUGGCAAAGUGGCUGUGGCUAGACUGCCUCUCUGGAUUACUCGUCACUCAGCAGGGCAUCUCUGAGAGAAAUGCC [A42C C110A], the self-cleavage is 1.68. Next, UACGUAGGUGGUUUUCCCCUGAUAGUGCUAAGGGGGCCUGGGAGUUUGGACUGGGCAGAGCUCUACACAGCGUGGCAAAGUGGCUGUGGCUAGACUGCCUCUCUGGAUUCCUCGUCACUCAGCAGGGCAUCUCUGAGAGAAAUGCC [A42G A64U]: 0.52; UACGUAGGUGGUUUUCCCCUGAUAGUGCUAAGGGGGCCUGGCAGUUUGGACUGGGCAGAGCUCAACACAGCGUGGCAAAGUGGCUGUGGCUAGACUGCCUCUCUGGAUUCCUCGUCACUCAGCAGGGCAUCUCUGAGAGAAAUGUC [A42C C145U]: 1.53. In the case of UACGUAGGUGGUUUUCCCCUGAUAGUGCUAAGGGGGCCUGGCAGUUUGGACUGGGCAGAGCUCAACACAGCGUGGCAAAGUGGCUGUGGCUAGACUGCCUCUCUGGAUUCCUCGUCACCCAGCAGGGCAUCUCUGAGAGAAAUGCC [A42C U119C] it was 0; in that of UACGUAGGUGGUUUUCCCCUGAUAGUGCUAAGGGGGCCUGGGAGUUUGGGCUGGGCAGAGCUCAACACAGCGUGGCAAAGUGGCUGUGGCUAGACUGCCUCUCUGGAUUCCUCGUCACUCAGCAGGGCAUCUCUGAGAGAAAUGCC [A42G A50G], 0.91. Next, UACGUAGGUGGUUUUCCCCUGAUAGUGCUAAGGGGGCCUGGGUGUUUGGACUGGGCAGAGCUCAACACAGCGUGGCAAAGUGGCUGUGGCUAGACUGCCUCUCUGGAUUCCUCGUCACUCAGCAGGGCAUCUCUGAGAGAAAUGCC [A42G A43U]: 1.56; UACGUAGGUGGUUUUCCCCUGAUAGUGCUAAGGGGGCCUGGCAGUUUGGACUGGGCAGAGCUCAACACAGCGUGGCAAAGUGGCUGUGGCUAGACUGCCUCCCUGGAUUCCUCGUCACUCAGCAGGGCAUCUCUGAGAGAAAUGCC [A42C U102C]: 1.13. On to UACGUAGGUGGUUUUCCCCUGAUAGUGCUAAGGGGGCCUGGCAGUUUGGACUGGGCAGAGCUCAACACAGCGUGGCAAAGUGGCUGUGGCUAGACUGCCUCUCUGGAUUCCUCGUCGCUCAGCAGGGCAUCUCUGAGAGAAAUGCC [A42C A117G], for which the self-cleavage was 0.77.

Regarding UACGUAGGUGGUUUUCCCCUGAUAGUGCUAAGGGGGCCUGGCAGUUUGGACUGGGCAGAGCUCAACACAGCGUGGCAAAGUGGCUGUGGCUAGACUGCCUCUCUGGAUUCCUCGUCACUCAGCAGGGCAUCUCUGAGAGAAGUGCC [A42C A142G], the self-cleavage was 1.23. In the case of UACGUAGGUGGUUUUCCCCUGAUAGUGCUAAGGGGGCCUGGCAGUUUGGACUGAGCAGAGCUCAACACAGCGUGGCAAAGUGGCUGUGGCUAGACUGCCUCUCUGGAUUCCUCGUCACUCAGCAGGGCAUCUCUGAGAGAAAUGCC [A42C G54A] it was 0.13.

In the case of UACGUAGGUGGUUUUCCCCUGAUAGUGCUAAGGGGGCCUGGCAGUUUGGACUGGGCAGAGCUCAACACAGCGUGGCAAAGUGGCUGUGGCUAGACUGCCCCUCUGGAUUCCUCGUCACUCAGCAGGGCAUCUCUGAGAGAAAUGCC [A42C U100C], the self-cleavage amounted to 1.25. Regarding UACGUAGGUGGUUUUCCCCUGAUAGUGCUAAGGGGGCCUGGCAGUUUGGACUGGGCAGAGCUCAACACAGCGUGGCAAAGUGGCUGUGGCUAGACUGCCUCUCUGGAUUCCUCGUCACUCAGCAGGGCAUCUCCGAGAGAAAUGCC [A42C U134C], the self-cleavage was found to be 1.31. For UACGUAGGUGGUUUUCCCCUGAUAGUGCUAAGGGGGCCUGGGAGUUUGGACUGGGCGGAGCUCAACACAGCGUGGCAAAGUGGCUGUGGCUAGACUGCCUCUCUGGAUUCCUCGUCACUCAGCAGGGCAUCUCUGAGAGAAAUGCC [A42G A57G], the self-cleavage is 0.95. Next, UACGUAGGUGGUUUUCCCCUGAUAGUGCUAAGGGGGCCUGGGAGUUUGGACUGGGCUGAGCUCAACACAGCGUGGCAAAGUGGCUGUGGCUAGACUGCCUCUCUGGAUUCCUCGUCACUCAGCAGGGCAUCUCUGAGAGAAAUGCC [A42G A57U]: 0.14; UACGUAGGUGGUUUUCCCCUGAUAGUGCUAAGGGGGCCUGGGAGUUUGGACUGGGCAGAGCUCAGCACAGCGUGGCAAAGUGGCUGUGGCUAGACUGCCUCUCUGGAUUCCUCGUCACUCAGCAGGGCAUCUCUGAGAGAAAUGCC [A42G A65G]: 0.14; UACGUAGGUGGUUUUCCCCUGAUAGUGCUAAGGGGGCCUGGGAGUUUGGACUGGGCAGAGCUCACCACAGCGUGGCAAAGUGGCUGUGGCUAGACUGCCUCUCUGGAUUCCUCGUCACUCAGCAGGGCAUCUCUGAGAGAAAUGCC [A42G A65C]: 0.07.

UACGUAGGUGGUUUUCCCCUGAUAGUGCUAAGGGGGCCUGGCAGUUUGGACUGGGCAGAGCUCAACACAGCGUGGCAAAGUGGCUGUGGCUAGACUGCCUCUCUGGUUUCCUCGUCACUCAGCAGGGCAUCUCUGAGAGAAAUGCC [A42C A107U]: the self-cleavage was 1.04.
